From PMC10269885

Target: PML protein (UniProt P29590)
Experiment: co-immunoprecipitation (anti-HA IP, anti-PML immunoblot, densitometry)
Conditions: HepaRG cells transfected with 10 μg plasmid; lysates prepared 48 h posttransfection; two independent experiments; parent: est. 7.8; read off a plot

Chain of UniProt P29590 (P29590 whole entry): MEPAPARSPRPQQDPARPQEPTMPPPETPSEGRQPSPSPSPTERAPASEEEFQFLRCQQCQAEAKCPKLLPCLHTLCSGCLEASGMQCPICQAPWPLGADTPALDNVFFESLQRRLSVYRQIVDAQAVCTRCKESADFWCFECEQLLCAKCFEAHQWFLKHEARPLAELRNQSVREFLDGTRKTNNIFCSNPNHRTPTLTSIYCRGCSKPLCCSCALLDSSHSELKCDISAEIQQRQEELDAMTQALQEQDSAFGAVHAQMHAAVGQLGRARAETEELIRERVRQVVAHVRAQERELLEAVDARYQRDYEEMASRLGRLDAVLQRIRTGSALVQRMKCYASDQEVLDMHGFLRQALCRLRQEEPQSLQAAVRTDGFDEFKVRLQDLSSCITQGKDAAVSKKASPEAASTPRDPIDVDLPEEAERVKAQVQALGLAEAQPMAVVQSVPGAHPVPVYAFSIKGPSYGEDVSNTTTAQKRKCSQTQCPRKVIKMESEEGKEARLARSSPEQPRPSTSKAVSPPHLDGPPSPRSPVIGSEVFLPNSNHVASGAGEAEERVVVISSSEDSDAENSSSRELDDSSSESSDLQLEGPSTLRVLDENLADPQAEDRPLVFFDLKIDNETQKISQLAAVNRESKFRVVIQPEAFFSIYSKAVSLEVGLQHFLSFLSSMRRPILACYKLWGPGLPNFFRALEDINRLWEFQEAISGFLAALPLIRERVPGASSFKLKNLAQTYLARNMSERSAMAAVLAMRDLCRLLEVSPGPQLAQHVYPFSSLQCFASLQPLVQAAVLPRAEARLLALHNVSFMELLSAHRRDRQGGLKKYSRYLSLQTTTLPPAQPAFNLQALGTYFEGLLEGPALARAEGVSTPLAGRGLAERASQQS

## HA-tagged wild-type HBV core protein (pCore-HA wt) K7R; K96R
  response (% input of PML co-IP): 0.1
